Laboratory results published in PMC3050627.

Target: His-MAFB (UniProt Q9Y5Q3 1-323)
Experiment: EMSA

Sequence of His-MAFB (Q9Y5Q3 whole entry): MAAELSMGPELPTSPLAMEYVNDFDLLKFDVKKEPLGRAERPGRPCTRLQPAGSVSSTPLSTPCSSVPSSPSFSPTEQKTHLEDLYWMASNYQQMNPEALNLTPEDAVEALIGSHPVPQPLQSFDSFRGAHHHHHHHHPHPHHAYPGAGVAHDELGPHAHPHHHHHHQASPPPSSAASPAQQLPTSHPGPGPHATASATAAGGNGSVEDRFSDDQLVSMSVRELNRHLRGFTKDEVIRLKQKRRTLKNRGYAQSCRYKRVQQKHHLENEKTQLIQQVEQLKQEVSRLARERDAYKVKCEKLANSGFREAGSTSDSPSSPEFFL

Row | Binder | binding result
1 | P31 (PRDIII-PRDI) (dsDNA) DNA 1: GAAAACTGAAAGGGAGAAGTGAAAGTG DNA 2: CACTTTCACTTCTCCCTTTCAGTTTTC | no binding
2 | MARE (dsDNA) DNA 1: CATTTCTGCTGACTCAGCAACTTTA DNA 2: TAAAGTTGCTGAGTCAGCAGAAATG | binds
